Measured values: US11078246B2, “Peptides binding to Bfl-1” (Dana-Farber Cancer Institute, Inc., priority 2015, dated 2021)
Residue numbers refer to the chain shown, from its start. Starred links: 1 amine or outer side, 2 acyl side, 3 side chain; linkers in the order of their positions; H or OH if unused. Positions of bridges follow the written chain, without caps; N, C: chain ends. Non-standard residues stand in square brackets, D forms with d. Residues, ends and D or L forms follow the SMILES beside them. No end group written: not given here. *: point of attachment. Nip(3R) = O=C([C@@H]1CCCN([*:1])C1)[*:2]; S5 = C=CCCC[C@](C)(N)C(=O)O; code J = not defined here; Acryloyl = C=CC(=O)*

Experiments:
A375P cells = experiment: Cellular uptake by ImageXpress Micro epifluorescence microscopy; assay type: cell-based, human; settings: FITC-labeled peptides, 4 h; data not shown
Protocol: Confocal Microscopy: A375P cells were plated in chambered coverglass (1.5×10^4 cells/well) and cultured as above. […] Cells were washed, stained with MitoTracker Red (Thermo), Hoescht 33342, and imaged live. Confocal images were collected with a Yokogawa CSU-X1 spinning disk confocal (Andor Technology) mounted on a Nikon Ti-E inverted microscope (Nikon Instruments). Images were acquired using a 100×1.4 NA Plan Apo objective lens with an Orca ER CCD camera (Hamamatsu Photonics) and 488 nm laser. Acquisition parameters, shutters, filter positions and focus were controlled by Andor iQ software (Andor Technology). […] Data were collected for five sites per well at 20× magnification, with each treatment performed in triplicate, and then analyzed and quantified using MetaXpress software. […] A custom module in MetaXpress was applied to incrementally recede the CMDR image mask from the cellular border, further restricting the analyzed FITC signal to internalized peptide. The measurement of Total Internalized Fluorescence Intensity (TIFI) represents the level of absolute fluorescence detected per cell, per peptide construct. Maximum and minimum thresholding was utilized to exclude FITC and Cy5 outliers that were much larger and brighter than average, and total intensity and average intensity per cell thresholds were set such that vehicle-treated cells scored negative by the analysis.

[1] = tested on: mouse embryonic fibroblasts (MEFs); experiment: as above; assay type: cell-based; settings: FITC-labeled peptides, 4 h; data not shown
A375P melanoma cells = experiment: Cell viability (CellTiter-Glo); assay type: cell-based, human; settings: 40 μM, over time
Protocol: Cell Viability, LDH Release, and Caspase-3/7 Activation Assays: Cancer cells were cultured using their standard culture media containing 10% FBS and penicillin/streptomycin (A375P: DMEM; SK-MEL-2, SK-MEL-28 and MCF-7: EMEM: A549, H929: RPMI). […] Cell viability and caspase 3/7 activation was measured using CellTiter-Glo and Caspase-Glo 3/7 chemiluminescence reagents (Promega), respectively, and luminescence detected by a microplate reader (Spectramax M5, Molecular Devices). LDH release was quantified after 30 min peptide incubation by plate centrifugation at 1500 rpm for 5 min at 4° C., transfer of 100 μL cell culture media to a clear plate (Corning), incubation with 100 μL LDH reagent (Roche) for 30 min while shaking, and measurement of absorbance at 490 nm on a Spectramax M5 microplate reader. Mitochondrial Cytochrme c Release and Biotinylation Assays: A375P cells were plated in 6-well Corning plates (3×10^5 cells/well) and cultured as above. […] Briefly, pelleted cells were resuspended at 1×10^7 cells/mL in permeabilization buffer (20 mM HEPES/KOH pH 7.5, 250 mM sucrose, 50 mM KCl, 2.5 mM MgCl2) supplemented with 0.025% digitonin and protease inhibitors, followed by incubation on ice for 10 min and centrifugation at 13,000 g.

BFL-1ΔC [2] = experiment: Covalent conjugation assay of warhead-bearing SAHBs; assay type: binding, human
Protocol: For warhead-bearing SAHBs, His-BFL-1ΔC C4S/C19S protein was pretreated with 10 mM DTT in 50 mM Tris pH 8.0, 100 mM NaCl for 30 min at RT (final volume, 9.5 μL), and then combined with a 10:1 molar ratio of NOXA SAHBA or BIM SAHBA peptides bearing warheads 1-8 (final volume, 10 μL) for an additional 2 h incubation at RT. Processing for gel electrophoresis and Coomassie staining was performed as above.

MCL-1ΔNΔC = molecular target: T1, MCL-1ΔNΔC (Homo sapiens, UniProt Q07820); experiment: as above; assay type: binding
T1 construct: MCL-1ΔNΔC (aa 170-327) and BCL-XLΔC (aa 1-212) constructs were cloned into pGEX-4T-1; GST (N, cleaved yes); made in house; host or cells: Escherichia coli BL21(DE3)
Protocol: Processing for gel electrophoresis and Coomassie staining was performed as above.

BCL-XLΔC = molecular target: T2, BCL-XLΔC (Homo sapiens, UniProt Q07817); experiment: as above; assay type: binding
T2 construct: MCL-1ΔNΔC (aa 170-327) and BCL-XLΔC (aa 1-212) constructs were cloned into pGEX-4T-1; GST (N, cleaved yes); made in house; host or cells: Escherichia coli BL21(DE3)

GST-MCL-1ΔNΔC = molecular target: T3, GST-MCL-1ΔNΔC (Homo sapiens, UniProt Q07820); experiment: Streptavidin pull-down from anti-apoptotic protein mixture; assay type: binding; settings: 1:1:1:1 mixture, 1 μM each, biotinylated SAHB
T3 construct: MCL-1ΔNΔC (aa 170-327) and BCL-XLΔC (aa 1-212) constructs were cloned into pGEX-4T-1; made in house; host or cells: Escherichia coli BL21(DE3)
Protocol: (§1) Streptavidin Pull-down: Recombinant His-BFL-1ΔC, BCL-XLΔC (tagless) and GST-MCL-1ΔNΔC (1 μM each) were combined and reduced with 3 mM DTT in PBS for 30 min at RT, and then incubated with 1 μM biotinylated SAHBA, SAHBA-3 or vehicle for 4 h at RT. The mixtures were then combined with PBS-washed high-capacity SA agarose (Thermo Fisher Pierce) and incubated with rotation for 2 h at RT. The beads were centrifuged at 3000 rpm, washed twice with NP-40 lysis buffer (1% NP40, 50 mM Tris pH 8.0, 100 mM NaCl, 2.5 mM MgCl2), once with PBS, and then bound protein eluted by boiling in 10% SDS containing 10 mg/mL biotin. Inputs (10%) and eluates were electrophoresed on a 12% Bis-Tris gel and then subjected to silver stain and imaging.

His-BFL-1ΔC = molecular target: T4, His-BFL-1ΔC (Homo sapiens, UniProt Q16548); experiment: as above; assay type: binding; settings: 1:1:1:1 mixture, 1 μM each, biotinylated SAHB; relative to SAHB without warhead
T4 construct: cDNA encoding BFL-1ΔC (aa 1-153) was cloned into the pET19b expression vector; made in house; host or cells: Escherichia coli BL21(DE3) LOBSTR
T4 sequence (Q16548 1-153): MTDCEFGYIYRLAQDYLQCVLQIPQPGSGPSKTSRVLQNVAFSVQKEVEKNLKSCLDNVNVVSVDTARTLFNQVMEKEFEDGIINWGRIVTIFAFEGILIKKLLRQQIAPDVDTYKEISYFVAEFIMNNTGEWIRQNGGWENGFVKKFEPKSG
Protocol: as §1

BFL-1ΔC [3] = molecular target: T5, BFL-1ΔC (Homo sapiens, UniProt Q16548); experiment: Liposomal release assay with SAHBA-3/BFL-1ΔC conjugates; assay type: biochemical; settings: BFL-1ΔC covalently conjugated to the peptide, 1.5 μM
T5 construct: cDNA encoding BFL-1ΔC (aa 1-153) was cloned into the pET19b expression vector; made in house; host or cells: Escherichia coli BL21(DE3) LOBSTR
T5 sequence (Q16548 1-153): T4 sequence (Q16548 1-153)
Protocol: as §1, with “Inputs (10%) and eluates were electrophoresed on a 12% Bis-Tris gel and then subjected to silver stain and imaging.” left out
Large unilamellar vesicles (LUVs) with encapsulated ANTS and DPX were generated and purified as described (Leshchiner et al., 2013; Lovell et al., 2008). The indicated combinations of BAX (400 nM), tBID (40 nM), and BFL-1ΔC or SAHBA-3/BFL-1ΔC conjugates (1.5 μM), were added to liposomes (5 μL) in 384 well plates (final volume, 30 μL), and released fluorophore was measured over 120 min using an M1000 Infinite plate reader (Tecan) with excitation and emission wavelengths of 355 nm and 520 nm, respectively. […] Percent ANTS/DPX release was calculated as [(F−F0)/(F100−F0)]×100, where F0 is baseline fluorescence at time 0, F is the fluorescence recorded for each time point, and F100 is the maximum amount of ANTS/DPX release based on liposomal treatment with 1% Triton X-100.

HA-BFL-1ΔC C4S/C19S = molecular target: T6, HA-BFL-1ΔC C4S/C19S (Homo sapiens, UniProt Q16548, C19S/C4S); experiment: Crosslinking in lysates of transfected 293T cells; assay type: binding; settings: 293T lysate
T6 construct: cDNA encoding BFL-1ΔC (aa 1-153) was cloned into the pET19b expression vector; expressed in transfected cells; host or cells: 293T
T6 sequence (Q16548 1-153 C4S/C19S): T4 sequence (Q16548 1-153) with C4S, C19S
Protocol: 293T cells were maintained in DMEM containing 10% FBS and penicillin/streptomycin, and transfections performed with 2 μg pCMV plasmid containing HA-BFL-1ΔC C4S/C19S using X-tremeGENE 9 (Roche). For lysate experiments, cells were trypsinized 24 hours post-transfection, washed with PBS, and lysed by incubation with 1% CHAPS lysis buffer (150 mM NaCl, 50 mM Tris pH 7.4, 100 mM DTT). Protein concentration of the soluble fraction was measured using a BCA kit according to manufacturer's instructions (Thermo Scientific). […] Samples were then boiled in LDS buffer and subjected to western analysis using 1:1000 dilutions of HA (Sigma-Aldrich. #12CA5) and biotin (Abcam, #53494) antibodies. To evaluate the capacity of biotinylated SAHBs to compete with tBID for interactions with BFL-1 and MCL-1, 293T cells were transfected with either HA-BFL-1ΔC C4S/C19S or FLAG-MCL-1 in the p3XFLAG-CMV-10 vector (Sigma) as above. After 24 h, cells were trypsinized, washed with PBS, lysed in 1% CHAPS buffer, and the supernatant collected for protein concentration determination by BCA kit. […] The mixtures were then subjected to HA or FLAG (Sigma-Aldrich, F7425) immunoprecipitation, followed by western analysis using 1:1000 dilutions of HA, FLAG, biotin, and BID (Santa Cruz sc-11423) antibodies. […] Cells were harvested and lysed as above, and incubated overnight with anti-HA agarose beads (Pierce). […]

T1 sequence (Q07820 170-327, stated change not applied): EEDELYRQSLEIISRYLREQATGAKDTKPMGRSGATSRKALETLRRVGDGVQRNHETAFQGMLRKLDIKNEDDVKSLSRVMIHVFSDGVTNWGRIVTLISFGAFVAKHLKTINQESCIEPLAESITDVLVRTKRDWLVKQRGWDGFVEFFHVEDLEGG
T3 sequence (Q07820 170-327, stated change not applied): as above
T2 sequence (Q07817 1-212, stated change not applied): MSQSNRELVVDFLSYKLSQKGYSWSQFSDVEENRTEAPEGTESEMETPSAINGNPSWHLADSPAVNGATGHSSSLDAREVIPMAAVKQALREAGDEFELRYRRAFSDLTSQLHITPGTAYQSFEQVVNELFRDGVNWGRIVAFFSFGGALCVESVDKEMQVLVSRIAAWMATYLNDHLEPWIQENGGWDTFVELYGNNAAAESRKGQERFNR

Molecule | cellular uptake (A375P cells) | cellular uptake [1] | cytotoxicity compared to BIM SAHBA1 (A375P melanoma cells) | reactivity with BFL-1 constructs WT, C4S/C19S, C55S, C4S/C19S/C55S (BFL-1ΔC [2]) | reactivity with MCL-1ΔNΔC (MCL-1ΔNΔC) | reactivity with BCL-XLΔC (BCL-XLΔC) | MCL-1ΔNΔC engagement in SA pull-down (GST-MCL-1ΔNΔC) | BFL-1ΔC engagement in SA pull-down (His-BFL-1ΔC) | BFL-1ΔC suppression of tBID-triggered BAX-mediated liposomal release (BFL-1ΔC [3]) | reactivity with other lysate proteins (biotin western) (HA-BFL-1ΔC C4S/C19S) | molecular weight shift of HA-BFL-1ΔC C4S/C19S (anti-HA western) (HA-BFL-1ΔC C4S/C19S; biotinylated peptide 10 μM, 2 h)
C=CC(=O)N1CCC[C@@H](C(=O)N[C@H](C(=O)N[C@@H](C)C(=O)N[C@@H](CCC(N)=O)C(=O)N[C@@H](CCC(=O)O)C(=O)N[C@@H](CC(C)C)C(=O)N[C@@H](CCCNC(=N)N)C(=O)N[C@@]2(C)CCCC=CCCC[C@@](C)(C(=O)N[C@@H](Cc3ccccc3)C(=O)N[C@@H](CC(N)=O)C(=O)N[C@@H](C)C(=O)N[C@@H](Cc3ccc(O)cc3)C(=O)N[C@@H](Cc3ccc(O)cc3)C(=O)N[C@@H](C)C(=O)N[C@@H](CCCNC(=N)N)C(=O)N[C@@H](CCCNC(=N)N)C(N)=O)NC(=O)[C@H](CC(=O)O)NC(=O)CNC(=O)[C@H]([C@@H](C)CC)NC2=O)[C@@H](C)CC)C1 [BIM SAHBA-3] (Acryloyl-[Nip(3R)]IAQELR[S5]IGD[S5]FNAYYARR-NH2; staple 8-12; N-terminus and C-terminus assumed) | equivalent cellular uptake | equivalent cellular uptake | significant enhancement in cytotoxicity over time | – | – | – | – | – | – | – | –
NOXA SAHBA-3: NOXA SAHBA (aa 21-43) capped at L21 with D-nipecotic acid acrylamide warhead 3; JEVESATQLRXFGDXLNFRQKLL (SEQ ID NO:24) ([code J]EVESATQLR[S5]FGD[S5]LNFRQKLL; staple 11-15; reading uncertain) | – | – | – | exclusive reactivity with the WT and BFL-1 C4S/C19S constructs | did not react | did not react | relatively less | notably more | the inhibitory function of BFL-1 was lost | little to no non-specific reactivity | prominent molecular weight shifts
